From patent US20210386788A1, “ER TUNABLE PROTEIN REGULATION” (Obsidian Therapeutics, Inc., priority 2018, published 2021)

Tests used:
Assay type in all cases: cell-based, human
HEK 293T cells = experiment: IL12 expression of ER-DD flexi IL12 constructs in transiently transfected HEK 293T cells (MSD assay); details: for IL12 expression, 1 μM BZD / IL12 expression, Vehicle: HEK 293T transiently transfected, MSD assay; for IL12 expression, 1 μM BZD: 1 μM Bazedoxifene 24 hours; for IL12 expression, Vehicle: vehicle control 24 hours; for Stabilization Ratio: IL12 with 1 μM BZD versus vehicle
Protocol: HEK 293T cells were transiently transfected with constructs containing ER-DDs fused to flexi IL12 with or without intervening furin site to generate constructs: OT-001569, OT-001737. Cells were then treated with 1 μM Bazedoxifene (BZD) or vehicle control for 24 hours and IL12 levels were measured by MSD assay Table 11.

HEK293T cells [1] = experiment: IL12 p40 in media of HEK293T cells transfected with IL12-CD19 CAR tandem constructs (MSD assay); details: for IL12p40 DMSO Average: vehicle 24 hrs (absence of ligand)
Protocol: (§1) HEK293T cells were transiently transfected with 1 μg DNA from each construct listed in the first column of Table 13 and incubated in DMEM with 10% FBS at 37° C., 5% CO2 for 24 hrs. Following the incubation, 1 μM of Bazedoxifene (BZD) or vehicle was added and cells were further incubated for 24 hrs. Following the incubation, CD19 CAR expression on the cell surface was quantified using FACS with CD19-Fc reagent, as a measure of transfection efficiency. IL12 levels in the media were quantified using MSD assay for p40. The IL12 and CD19 levels are shown in Table 13, where SD indicates standard deviation and SR indicates stabilization ratio. The stabilization ratio was calculated using the average IL12 values.

HEK293T cells [2] = experiment: CD19 CAR cell surface expression in transfected HEK293T cells (FACS with CD19-Fc); details: measure of transfection efficiency
Protocol: as §1

primary T cells = experiment: CD19 CAR expression on lentivirus transduced primary T cells (flow cytometry with CD19-Fc); details: both day 7 and day 9
Protocol: Primary T cells were activated with CD3/CD28 Dynabeads at 3:1 Bead: Cell ratio overnight, then transduced with OT-001792 lentivirus. On day 7 of the T cell expansion, CAR expression was measured by flow cytometry with CD19-Fc on cells treated overnight in the presence (34% positive) or absence (0.6% positive) of 1 μM Bazedoxifene. After the T cells had expanded for 10 days, they were mixed with CD19-expressing Nalm6 target cells at ratios of 10:1 and 2.5:1 total T cells:Nalm6 cells and cultured for 3 days.
Primary T cells were activated with CD3/CD28 Dynabeads at 3:1 Bead:Cell ratio overnight, then transduced with lentiviruses derived from the indicated constructs. On day 7 or day 9 (as indicated) of the T cell expansion, CAR expression was measured by flow cytometry with CD19-Fc on cells incubated for 24 hours with 1 μM Bazedoxifene or 1 μM Raloxifene or DMSO. […] At day 9 the basal percentage of CAR positive cells for the same constructs was even lower at approximately 20% i.e. in the absence of ligand and about 32-45% in the presence of either ligand. […] This was true at both day 7 and day 9.
Human donor T cells were thawed and activated overnight in the presence of CD3/CD28 Dynabeads at 3:1 bead:cell ratio, then transduced with lentivirus related to OT-002158, or OT-001786. Cells were expanded over the course of 10 days, with fresh media added to maintain cells at around 0.5×10^6 cells/mL. On day 9, an aliquot of cells was removed, and treated with 1 μM Bazedoxifene overnight or DMSO vehicle control, then stained with 10 μg/mL CD19-Fc. Histograms showing CAR expression from a Live Singlet cell gate were plotted.
Human donor T cells were thawed and activated overnight in the presence of CD3/CD28 Dynabeads at 3:1 bead:cell ratio, then transduced with lentivirus from the constructs. Cells were expanded over the course of 10 days, and fresh media was added to maintain cells around 0.5×10^6 cells/ml. On day 9, an aliquot of cells were removed, treated with 1 μM Bazedoxifene overnight, then stained with 10 μg/mL CD19-Fc. Histograms showing CAR expression from a Live Singlet cell gate were plotted. The data are shown in Table 19 and Table 20 where data are presented as % CAR positive cells, where SR indicates stabilization ration.
T cells were transduced with OT-00179, OT-002158, OT-001407 or empty vector and expanded as described herein, frozen on day 10. To confirm the expression and function of this large scale expansion for in vivo use, cells were thawed and incubated overnight in the presence of CD3/28 beads (1:1 bead:cell ratio) and with or without 1 μM Bazedoxifene. FACS staining with 1 μg/mL CD19-Fc was performed to measure the surface expression of CD19-CAR. The data are provided in Table 21 as the percentage CAR positive cells.

| Molecule | IL12 expression, 1 μM BZD (HEK 293T cells) | IL12 expression, Vehicle (HEK 293T cells) | Stabilization Ratio (HEK 293T cells) | IL12p40 1 μM BZD Average (HEK293T cells [1]; HEK293T, 1 μg DNA, 1 μM Bazedoxifene 24 hrs) | IL12p40 DMSO Average (HEK293T cells [1]; HEK293T, 1 μg DNA) | SR (stabilization ratio) (HEK293T cells [1]; calculated using the average IL12 values, 1 μM BZD versus DMSO) | Surface CAR (HEK293T cells [2]) | percentage of CAR positive cells (primary T cells; absence of ligand) | percentage of CAR positive cells (primary T cells; presence of ligand) |
| --- | --- | --- | --- | --- | --- | --- | --- | --- | --- |
| OT-001569: ER-DD (T371A, L384M, M421G, N519S, G521R, Y537S) fused to flexi IL12 (protein) MCHQQLVISWFSLVFLASPLVAGSSLALSLTADQMVSALLDAEPPILYSEYDPTRPFSEASMMGLLTNLADRELVHMINWAKRVPGFVDLALHDQVHLLECAWMEILMIGLVWRSMEHPGKLLFAPNLLLDRNQGKCVEGGVEIFDMLLATSSRFRMMNLQGEEFVCLKSIILLNSGVYTFLSSTLKSLEEKDHIHRVLDKITDTLIHLMAKAGLTLQQQHQRLAQLLLILSHIRHMSSKRMEHLYSMKCKNVVPLSDLLLEMLDAHRLGSIWELKKDVYVVELDWYPDAPGEMVVLTCDTPEEDGITWTLDQSSEVLGSGKTLTIQVKEFGDAGQYTCHKGGEVLSHSLLLLHKKEDGIWSTDILKDQKEPKNKTFLRCEAKNYSGRFTCWWLTTISTDLTFSVKSSRGSSDPQGVTCGAATLSAERVRGDNKEYEYSVECQEDSACPAAEESLPIEVMVDAVHKLKYENYTSSFFIRDIIKPDPPKNLQLKPLKNSRQVEVSWEYPDTWSTPHSYFSLTFCVQVQGKSKREKKDRVFTDKTSATVICRKNASISVRAQDRYYSSSWSEWASVPCSGGGGSGGGGSGGGGSRNLPVATPDPGMFPCLHHSQNLLRAVSNMLQKARQTLEFYPCTSEEIDHEDITKDKTSTVEACLPLELTKNESCLNSRETSFITNGSCLASRKTSFMMALCLSSIYEDLKMYQVEFKTMNAKLLMDPKRQIFLDQNMLAVIDELMQALNFNSETVPQKSSLEEPDFYKTKIKLCILLHAFRIRAVTIDRVMSYLNAS | 109878 | 11529.1 | 9.5 | 75542.57 pg/mL | 6443.64 pg/mL | 11.72 | 0.1% |  |  |
| OT-001356: IL12-CD19 CAR tandem construct listed without ER DD mutation in Table 13 (control) (protein) IWELKKDVYVVELDWYPDAPGEMVVLTCDTPEEDGITWTLDQSSEVLGSGKTLTIQVKEFGDAGQYTCHKGGEVLSHSLLLLHKKEDGIWSTDILKDQKEPKNKTFLRCEAKNYSGRFTCWWLTTISTDLTFSVKSSRGSSDPQGVTCGAATLSAERVRGDNKEYEYSVECQEDSACPAAEESLPIEVMVDAVHKLKYENYTSSFFIRDIIKPDPPKNLQLKPLKNSRQVEVSWEYPDTWSTPHSYFSLTFCVQVQGKSKREKKDRVFTDKTSATVICRKNASISVRAQDRYYSSSWSEWASVPCSGGGGSGGGGSGGGGSRNLPVATPDPGMFPCLHHSQNLLRAVSNMLQKARQTLEFYPCTSEEIDHEDITKDKTSTVEACLPLELTKNESCLNSRETSFITNGSCLASRKTSFMMALCLSSIYEDLKMYQVEFKTMNAKLLMDPKRQIFLDQNMLAVIDELMQALNFNSETVPQKSSLEEPDFYKTKIKLCILLHAFRIRAVTIDRVMSYLNASGS |  |  |  |  | 203531.67 pg/mL |  | 40% |  |  |
| OT-001737: ER-DD fused to flexi IL12, with or without intervening furin site (protein) MCHQQLVISWFSLVFLASPLVAGSSLALSLTADQMVSALLDAEPPILYSEYDPTRPFSEASMMGLLTNLADRELVHMINWAKRVPGFVDLALHDQVHLLECAWMEILMIGLVWRSMEHPGKLLFAPNLLLDRNQGKCVEGGVEIFDMLLATSSRFRMMNLQGEEFVCLKSIILLNSGVYTFLSSTLKSLEEKDHIHRVLDKITDTLIHLMAKAGLTLQQQHQRLAQLLLILSHIRHMSSKRMEHLYSMKCKNVVPLSDLLLEMLDAHRLRTKRIWELKKDVYVVELDWYPDAPGEMVVLTCDTPEEDGITWTLDQSSEVLGSGKTLTIQVKEFGDAGQYTCHKGGEVLSHSLLLLHKKEDGIWSTDILKDQKEPKNKTFLRCEAKNYSGRFTCWWLTTISTDLTFSVKSSRGSSDPQGVTCGAATLSAERVRGDNKEYEYSVECQEDSACPAAEESLPIEVMVDAVHKLKYENYTSSFFIRDIIKPDPPKNLQLKPLKNSRQVEVSWEYPDTWSTPHSYFSLTFCVQVQGKSKREKKDRVFTDKTSATVICRKNASISVRAQDRYYSSSWSEWASVPCSGGGGSGGGGSGGGGSRNLPVATPDPGMFPCLHHSQNLLRAVSNMLQKARQTLEFYPCTSEEIDHEDITKDKTSTVEACLPLELTKNESCLNSRETSFITNGSCLASRKTSFMMALCLSSIYEDLKMYQVEFKTMNAKLLMDPKRQIFLDQNMLAVIDELMQALNFNSETVPQKSSLEEPDFYKTKIKLCILLHAFRIRAVTIDRVMSYLNAS | 79706.8 | 10186.4 | 7.8 |  |  |  |  |  |  |
| OT-001791: CD8α leader; Linker (RS); ER (T371A, L384M, M421G, N519S, G521R, Y537S); Furin cleavage site; CD19 CAR; SEQ ID NO. 404 (protein) MALPVTALLLPLALLLHAARPRSSLALSLTADQMVSALLDAEPPILYSEYDPTRPFSEASMMGLLTNLADRELVHMINWAKRVPGFVDLALHDQVHLLECAWMEILMIGLVWRSMEHPGKLLFAPNLLLDRNQGKCVEGGVEIFDMLLATSSRFRMMNLQGEEFVCLKSIILLNSGVYTFLSSTLKSLEEKDHIHRVLDKITDTLIHLMAKAGLTLQQQHQRLAQLLLILSHIRHMSSKRMEHLYSMKCKNVVPLSDLLLEMLDAHRLGTGAEDPRPSRKRRSLGDVGEIVMTQSPATLSLSPGERATLSCRASQDISKYLNWYQQKPGQAPRLLIYHTSRLHSGIPARFSGSGSGTDYTLTISSLQPEDFAVYFCQQGNTLPYTFGQGTKLEIKGGGGSGGGGSGGGGSQVQLQESGPGLVKPSETLSLTCTVSGVSLPDYGVSWIRQPPGKGLEWIGVIWGSETTYYSSSLKSRVTISKDNSKNQVSLKLSSVTAADTAVYYCAKHYYYGGSYAMDYWGQGTLVTVSSTTTPAPRPPTPAPTIASQPLSLRPEACRPAAGGAVHTRGLDFACDIYIWAPLAGTCGVLLLSLVITLYCKRGRKKLLYIFKQPFMRPVQTTQEEDGCSCRFPEEEEGGCELRVKFSRSADAPAYKQGQNQLYNELNLGRREEYDVLDKRRGRDPEMGGKPRRKNPQEGLYNELQKDKMAEAYSEIGMKGERRRGKGHDGLYQGLSTATKDTYDALHMQALPPR |  |  |  |  |  |  |  | undetectable | about 5% |
